Results published in the DeepSol protein solubility set.

Test: soluble on expression in E. coli; label from the status in PepcDB or PDB records

| Sequence | soluble on expression in E. coli |
| --- | --- |
| MRPFILLALLVSVTVAFNIFRDEVVPEEQLLAVRRTTRDASDSSSDSDEKDDAKTTVTVSFGLSGSQAWPIFQFFSFALKTKKKSKFFRRSGYELRPRP | not soluble |
| KELKDSYVEYTLLYDMIANRIGIDEVVAENGTLRLMKNQVWAYDSLPHMLIAGGTGGGKTYFLLTIIEALLKSDAELFILDPKNADLADLGTVMPHVYSQKEEISACVEDFYERMIARSKAMKEMPNYKPGENYAYLGLPPNFLIFDEYVAYMGANRFPTS | not soluble |
| MGYEGIIVVDVRDAEAYKECHIPTAISIPGNKINEDTTKRLSKEKVIITYCWGPACNGATKAAAKFAQLGFRVKELIGGIEYWRKENGEVEGTLGAKADLFWNMKKESLEHHHHHH | not soluble |
| MSTGKIQFAEQNGSFVLKFVGEVRLTLCSALDSTIEKIFAALNFSAIIIDLTETQSIDSTTLGLLAKLSILSRQKIGLLPTLVTTNPDITRLLQSMGFDQVFNIVDRPIPCPECLSDLPPQDQSEDVVRDKVLEAHRILMGLNESNREAFHDLVSALERH | not soluble |
| MTGMSERERQVMKKLKEVVDKQRDEIRAKDRELGLKNEDVEALQQQQTRLMKINHDLRHRVTVVEAQGKALIEQKVELEADLQTKEQEMGSLRAELGKLRERLQGEHSQNGEEEPETEPVGEESISDAEKVAMDLKDPNRPRFTLQELRDVLHERNELKSKVFLLQEELAYYKSEEMEEENRIPQPPPIAHPRTSPQPESGIKRLFSFFSRDKKRLANTQRNVHIQESFGQWANTHRDDGYTEQGQEALQHL | not soluble |
| SNAMILSQQKYNYLAKVSDSNGVISALAFDQRGALKCLMAQYQMKEPTVAQMEELKVLVSEELTPYASSILLDPEYGLPAAQARDREAGLLLAYEKTGYDANTTSRLPDCLVDWSIKRLKEAGADAVKFLLYYDVDGDPQVNVQKQAYIERIGSECQAEDIPFFLEILTYDETISNNSSVEFAKVKVHKVNDAMKVFSAERFGIDVLKVEVPVNMVYVEGFAEGEVVYSKEEAAQAFREQEASTDLPYIYLSAGVSAELFQETLVFAHKAGAKFNGVLCGRATWAGSVQVYMEEGKEAARQWLRTSGLQNINELNKVLKTTASPWTEKVSVG | soluble |
| DGSCTNTNSQLSANSKCEKSTLTNCYVDKSEVYGTTCTGSRFDGVTITTSTSTGSRISGPGCKISTCIITGGVPAPSAACKISGCTFSAN | soluble |
| MSLETRARNSTRPASGLIDWEQARQAALRLSQWEQAPVDNRAFRREQYARMVALSEPLIADYLGVRLPEPVSRIFVFDRREWLEANIVSFSQLFRPIEEMYEKNGGGRGALGVLMNDVSSKLLGVQIGGLLGYLAQRVLGQYDLSLLSAEATGGSLYFVEPNIARVQQQLGLSDEDFRLWITLHEMTHAFEFEAYPWVRTYFRELLEQNFALVSGQMLSSGNSLVDMLMRLLQGIGSGQHWIETVLTPEQRAVFDRIQALMSLIEGYGNHVMNAVGRRLLPSFNQIEQQIAQRQRQRTMLDQMVFRLTGLDLKLAQYQQGEAFVNAVVAARGIQFASRVWERPENLPSMDEIRNPGQWIVRMDREGHHHHHH | soluble |
| MVNDLTPHFEDVQAHYDLSDDFFRLFLDPTQTYSCAHFEREDMTLEEAQIAKIDLALGKLGLQPGMTLLDIGCGWGATMRRAIAQYDVNVVGLTLSKNQAAHVQKSFDEMDTPRDRRVLLAGWEQFNEPVDRIVSIGAFEHFGHDRHADFFARAHKILPPDGVLLLHTITGLTRQQMVDHGLPLTLWLARFLKFIATEIFPGGQPPTIEMVEEQSAKTGFTLTRRQSLQPHYARTLDLWAEALQEHKSEAIAIQSEEVYERYMKYLTGCAKLFRVGYIDVNQFTLAK | soluble |
| ALGVDKPREIAFEVLDRVRTGEAYANLVLPRLLSKHNLSGRDAAFATEITYGTLRNVGLLDEVIKAASGRELSDIDPEVLDVLRLGAYQVMFTRVEDHAAVDTSVKMVGGLKKFQATGFANAILRNITRKEPEQWLKELEPAEELARVAFRTAHPRWIA | not soluble |
| DQRQAEKALLESEQKFRSFIETTSEGFLILTPQLDINFSNTAICQLAGYSLTEMQGKSVLVFVTSESRKQLRQQLIMARSHSHLAAELTLMHKNGHHVFIRYKATVMADGNGFFTYITDIT | not soluble |
| MQERHTEQDYRALLIADTPIIDVRAPIEFEQGAMPAAINLPLMDNDERASVGTCYKQQGSDAALALGHKLVAGEIRQQRMYAWRAACLQNPQGILCCARGGQRSHIVQRWLHEAGIDYPLVEGGYKALRQTAIQATIELAQKPIVLIGGCTGSGKTLLVQQQPNGVDLEGLARHRGSAFGRTLQPQLSQASFENLLAAEMLKTDARQDLRLWVLEDESRMIGSNHLPECLRERMTQAAIAVVEDPFEIRLERLNEEYFLRMHHDFTHAYGDEQGWQEYCEYLHHGLSAIKRRLGLQRYNELAAQLDTALTTQLTTGSTDGHLAWLVPLLKEYYDPMYRYQLEKKAEKVVFRGEWAEVAVWVKAQLEHHHHHH | not soluble |
| SLIKNEHVKKCDTWPSGGEMVVKDLTVKYVDDGNAILENICFSISPGQRVGLLGRTGSGKSTLLSAFLRMLNIKGEIQIDGVSWNSMTLEEWRKAFGVITQKVFIFSGTFRQNLDPNGKWRDEEIWKVADQVGLKSVIEQFPGQLNFTLVDGGYVLSHGHKQLMCLARSVLSKAKIILLDEPSANLDPITYQVIRRVLRQAFAGCTVVLCEARIEAMLDCDRFLVIEQGNVWQYESLQALLSEKSDFQRALSSSE | soluble |
| MAKVVVLGAGVSGHTCASFLKKKLGKQHEVVVISPNSYYQWIPSNIWVGVGHMTIDDVRFKLKKVYDRWGIDYKQAKAVSIHPEGDANISKGYVTIEYTDEEHAGYTETVDYDYLVNATGPKLNFEATEGLGPDKNSLSVCTYSHAAHAWEELQKSIEKMKNGQKQRFLIGTGHAMATCQGAAFEYILNVAHEISRRGLSHMAELTWISNEYELGDFGMGGAFIKRGGYITPTKVFTESLLAEYGIKWIRRAGVYKVEPGVAHYETLDGEMLSQEFDFAMLIPSFSGVGLTAFDKSGNDITDKMFLPNKFMKVDADYTAKPFGEWGANDWPTIYQTPMYSNIYAAGIAFAPPHSISKPMTSVNGRQIFPTPPRTGMPSGVIGKIIALNISEQIKGNHKEHHHKASMARMGAACIVSAGFGSFDGLGASMTVFPIVPDWEKYPEWGRDMTYSVGEVGLAGHWLKFMLHYLFFHKAKGYPFWYLIPELEHHHHHH | not soluble |
| MGSDKIHHHHHHMADGTSLSIDAKPTEEFSVREVFGIDTDMKVKGFAEPTDRVPAIDPTYKFDPDTTLAILAGYGYNRRVMVQGYHGTGKSTHIEQVGARLNWPTVRVNLDSHISRIDLIGKDAIKLRDGKQVTEFHEGILPWALRNPVAIVFDEYDAGRADVMFVIQRVLETDGKLTLMDQNEIITPNPCFRLFATANTVGLGDTTGLYHGTQQINQAQMDRWSLVATLNYLRHDAEVNIVLAKCPHYNTETGRKTMNQMVTVADLTRTAFMNGELSTVMSPRTVINWAQNAEIFRDVGYAFRVSFLNKCDELERQTVAEFYQRCFDEELPESAASMSLG | not soluble |
| MSLKNFVVKDIGIPKYIENMVGKGDFYLLNKRKLNSHKGQNGKVLIIGGSKEYHGAPVFSGLAASKFADIVTVASVSNVIGTVRNYPELMPYELNGEYIGQKNTDELLKLSKNYDCTVLGSGLSLNSSTKEFVNSYLNETNGKVVIDADAIKLIDYGNFEFKNNFIFTPHKKEFEYMKDYVKKYAKNQGFNSTVVLKGSIDIVFDPDNIKMNITGNQGMTAGGTGDILCGIIGAICACNDAFPSACCGTYINGYCGDLLEKEYGYYYNSTDIIKILPKALKELLYEGHHHHHH | soluble |
| PSTLELLKDVHLGLPVPCHDPARLALLSGHYLYYHYGCDGLDDRGWGCGYRTLQTLCSWPGGQSSGVPGLPALQGALEAMGDKPPGFRGSRNWIGCVEASLCLEHFGGPQGRLCHLPRGVGLRGEEERLYSHFTTGGGPVMVGGDADAQSKALLGICEGPGSEVYVLILDPHYWGTPKNRCELQAAGWVGWQKVKSVFDSNSFYNLCFTRLEHHHHHH | soluble |
| MANTGCLSPGAFLSKVPEFFQTANEKHITVRLTAKRLIEHDPVEGNLEFDSTNHPDYDVSKKASEISVSSRSDREYPLLIRMSYGSHDKKTKCSTVVKASELDQFWQEYSSVFKGGMQNLIKKKKKKSKNGTISKTGKKNKVAKKN | not soluble |
| MGSDKIHHHHHHMDLRSDALQILKDTSRTFYIPISILPSGLQEAVASAYLCMRAIDEIEDHPTLDNPTKAKLLRGISLTLQAGVDGFPVDAFAAGFSGYENTLAEVTMRIREWSLLAPETIAPRIWDATAAMSDRMAYWAENNWKIYTESDLDRYTFGVAGAVGLLLSDLWTWYDGTQTNRTLAIGFGRGLQAVNILRNHVEDLGRGVSFFPDGWDANNMQEYALRNLALADAYTQALPDGPALNFCQIPLTLAHGTIDAIANGKEKLSRNDVMALLEHLITFNLKAG | not soluble |
| MSSPSGSSRTFPQYQSGSGWNAMLPKRTPRTAAPARRHFKSLVIGAGYTGLAAARRLAELQPQDQVLVVDATVAGEGSAGRNSGFLINLPHNTRMSGHHSPLEVARKQIAMLQSGLDWLAQLSGQGGFDCGWDLAGKYHAAATADGEQSLRGALQQYGQWGVAFSELDRDALQAQLGTRYYRFGYHSMNNVFVQPAALIRGLADSLPENVWLMEDNPVLSIDGSGPYKVRTRGGEFTADNVILANNAFARRLGFLRSRLVTIFTYAGVTPVLSPAQQALLGERDQWGVIPANRLGTTLRRISGGRFMVRSAYSYEAEQPLERMEQLLRDSFVRRYPDLAAHDFEYVWSGSTGLTGNGASFVGAIQPGLYASVGCNGAGVIKGTIYGKLLGEQVAGHRSAMLDDLASFEKPNWLPPEPLRRIGALSTIAYQARKAGLEKLEHHHHHH | not soluble |
| MSLNFIDEFRDKESILALKKLIEQELKNPINIMEICGGHTHSIMKYALPSILPKEINFIHGPGCPVCVMPRVRIDTAIKLASMKDTIFCTLGDLLRVPGSEISLLDLRAKGADVRALYSPLEVLEIAKQNLNKNIIFFAIGFETTTPMSALLLQKVIEEKINNVFFHINHITVPAPVEAIMNDENVKINAFLGPSHVSVITGYGIYEPLAAKFKTPIAVSGFEPVDILESVLNIIKQSNEGTFKVYNQYKRAVSKEGNVKAQNLVKKYFRVCDFEFRGLGLIKNGGLELKEEFSAYDASKKFDCTVQSKNESKACICGQILRGLAKPYDCKVFGKACTPRSPIGSCMVSGEGACAAYYKYSKVNAEGHHHHHH | soluble |
| MCMTRQPAVAGQFYTDEPKRLRGDLQRMIPAETMKQRVKGIVAPHAGYVYSGHVAGAVYGAIEIPSTVVILGPNHHGFGAAAALYPEGEWLTPLGSVPIDVRLSQLVQKHVPLVEPEMSAHRFEHSLEVQVPFLQYRADVSIVPICLGFGDYERCRLLGEGIARAIREFGEDVLIVASSDMTHYESADAARAKDEQAIAEVLALNPEGLVQICRRKNITMCGVIPATVMLVTAKALGASKAELISYATSGDVTGDNRQVVAYAAMAVYLEHHHHHH | not soluble |
| MGSDKIHHHHHHMEKEIKNIIEMRHIVKDFNGFKANNDINLTLRKGEILALLGENGAGKSTLMSILSGLLEPTSGEIYVRGEKVNISGPNVATSLGIGMVHQHFMLAQAFTVLENIILGHETTKGLALDFKTAREKILALSKQYGLAIDPDAKISDITVAQQQRVEILKVLYRGADILIFDEPTAVLTPQEITEFIKIMKNLAKEGKSIILITHKLKEIKESADRVTVIRAGKSIQTVSVADANDEQLAEMMVGHHVNFKLDKAPLNLGKNILEVKDLHVNEDRGTDAVKGLSFNIRGGEILGLAGIDGNGQDELVEAITGLRHVEGGQVVINGQDLTNKPVRQITEAGVGHIPADRQKYGLILQLPLSENIASQTYYKEPYSKHGIMNEQTIREHARELIKKFDVRTTSEQLPASDLSGGNQQKAIIARELDRDADLIIAFQPTRGLDVGAIEYIHSQLLKQRDAGKAVLLVSYELDEILQLSDRIVVLHDGAESGEVKPDQTSETELGLLMTGKNTKKEAAAND | not soluble |
